# Assay results taken from patent US20210403579A1 (DELINIA, published 2021).
# T1: Human ST2 (human, UniProt Q01638 19-328, limits assumed)
# T1 construct: also called human ST2 protein; Interleukin 1 receptor-like 1
# T1 sequence (looked up): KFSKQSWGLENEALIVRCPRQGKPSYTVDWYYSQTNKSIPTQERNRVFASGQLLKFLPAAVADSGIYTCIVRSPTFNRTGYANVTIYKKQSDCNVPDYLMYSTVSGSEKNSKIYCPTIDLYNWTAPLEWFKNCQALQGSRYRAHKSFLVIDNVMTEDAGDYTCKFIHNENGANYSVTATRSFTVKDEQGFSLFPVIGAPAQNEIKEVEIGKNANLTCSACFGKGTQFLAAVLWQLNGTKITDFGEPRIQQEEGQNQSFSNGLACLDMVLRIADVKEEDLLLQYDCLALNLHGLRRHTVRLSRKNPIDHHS
# Biological target: T1, Human ST2
# Experiment: SPR (Carterra), antibody immobilized, ST2 analyte
# Experimental: Binding of the reformatted human ST2 antibodies to the human and mouse ST2 proteins was evaluated by surface plasmon resonance (SPR), using a high throughput antibody screening and characterization platform from Carterra (Salt Lake City, Utah).
Binder,Kd,koff,kon
"Human ST2 IgG1 Antibody 68 (antibody, V domains shown, IgG1; also called ST2 Antibody 68) VH: QVQLVQSGAEVKKPGSSVKVSCKASGGTFSSYAISWVRQAPGQGLEWMGGIIPVVGSPDYAQRFQGRVTITADESTSTAYMELSSLRSEDTAVYYCARHSIVGATATSMDVWGKGTTVTVSS VL: not shown",704 nM,0.13 s⁻¹,190000 M⁻¹ s⁻¹
"Human ST2 IgG1 Antibody 66 (antibody, V domains shown, IgG1; also called ST2 Antibody 66) VH: QVQLVQSGAEVKKPGSSVKVSCKASGGTFSSNAISWVRQAPGQGLEWMGGIIPIFGTANYAQKFQGRVTITADESTSTAYMELSSLRSEDTAVYYCAGSPTGTPRVVFDYWGQGTLVTVSS VL: DIVMTQSPLSLPVTPGEPASISCRSSQSLLHSNGYNYLDWYLQKPGQSPQLLIYAASSLQSGVPDRFSGSGSGTDFTLKISRVEAEDVGVYYCMQALQTPITFGQGTRLEIKR",176 nM,0.0028 s⁻¹,16000 M⁻¹ s⁻¹
"Human ST2 IgG1 Antibody 80 (antibody, V domains shown, IgG1; also called ST2 Antibody 80) VH: QVQLVQSGAEVKKPGSSVKVSCKASGGTFSSYAISWVRQAPGQGLEWMGGIIPIFGTANYAQKFQGRVTITADESTSTAYMELSSLRSEDTAVYYCARVMVAGTGYYFDYWGQGTLVTVSS VL: DIVMTQSPLSLPVTPGEPASISCRSSQSLLHSNGYNYLDWYLQKPGQSPQLLIYGASSLQSGVPDRFSGSGSGTDFTLKISRVEAEDVGVYYCMQGLHTPPTFGQGTKLEIKR",842 nM,0.056 s⁻¹,67000 M⁻¹ s⁻¹
"Human ST2 IgG1 Antibody 63 (antibody, V domains shown, IgG1; also called ST2 Antibody 63) VH: QVQLVQSGAEVKKPGSSVKVSCKASGGTFSSDAINWVRQAPGQGLEWMGGIVPAFGTANYAQKFQGRVTITADESTSTAYMELSSLRSEDTAVYYCARSSSSWPYYYYYMDVWGKGTTVTVSS VL: DIVMTQSPLSLPVTPGEPASISCRSSQSLLLNNGNNFIDWYLQKPGQSPQLLIYAASILQGGVPDRFSGSGSGTDFTLKISRVEAEDVGVYYCMQALQTPPTFGQGTKVEIKR",96 nM,0.043 s⁻¹,450000 M⁻¹ s⁻¹
"Human ST2 IgG1 Antibody 77 (antibody, V domains shown, IgG1; also called ST2 Antibody 77) VH: QVQLVQSGAEVKKPGSSVKVSCKASGYTFSDHYIHWVRQAPGQGLEWMGGIIPILGTANYAQKFQGRVTITADESTSTAYMELSSLRSEDTAVYYCATDIAVAGTGFDYWGQGTLVTVSS VL: not shown",377 nM,0.099 s⁻¹,260000 M⁻¹ s⁻¹
"Human ST2 IgG1 Antibody 81 (antibody, V domains shown, IgG1; also called ST2 Antibody 81) VH: EVQLLESGGGLVKPGGSLRLSCAASGFTFSSYWMSWVRQAPGKGLEWVSSISSSGNYMYYAVSVKGRFTISRDDSKNTLYLQMNSLKTEDTAVYYCATETYSYSSMDVWGQGTTVTVSS VL: DIQMTQSPSSLSASVGDRVTITCRASQSISSYLNWYQQKPGKAPKLLIYDASNLETGVPSRFSGSGSGTDFTLTISSLQPEDFATYYCQQSYGTPLTFGGGTKVDIKR",126 nM,0.026 s⁻¹,200000 M⁻¹ s⁻¹
"Human ST2 IgG1 Antibody 82 (antibody, V domains shown, IgG1; also called ST2 Antibody 82) VH: QVQLVQSGAEVKKPGASVKVSCKASGYTFTENEMHWVRQAPGQGLEWMGWISAYNGDTNYAQKFQGRVTMTRDTSTSTVYMELSSLRSEDTAVYYCAKEVRLDDDEMWYFDLWGRGTLVTVSS VL: DIQMTQSPSSLSASVGDRVTITCRASQDINNFLVWYQQKPGKAPKLLIYDASNLETGVPSRFSGSGSGTDFTLTISSLQPEDFATYYCQQAYSFPLTFGGGTKVEIKR",204 nM,0.003 s⁻¹,15000 M⁻¹ s⁻¹
"Human ST2 IgG1 Antibody 78 (antibody, V domains shown, IgG1; also called ST2 Antibody 78) VH: EVQLLESGGGLVQPGGSLRLSCAASDFNFKNAWMSWVRQAPGKGLEWVSAISGNGAGTYYADSVKGRFTISRDNSKNTLYLQMNSLRAEDTAVYYCARVGETGAFDIWGQGTTVTVSS VL: not shown",154 nM,0.082 s⁻¹,530000 M⁻¹ s⁻¹
"Human ST2 IgG1 Antibody 74 (antibody, V domains shown, IgG1; also called ST2 Antibody 74) VH: EVQLLESGGGLVQPGGSLRLSCAASGFTFSSYWMSWVRQAPGKGLEWVSSISSSSSYIYYADSVKGRFTISRDNSKNTLYLQMNSLRAEDTAVYYCARDQGWFDPWGQGTLVTVSS VL: DIQMTQSPSSLSASVGDRVTITCRASRAIGNNLSWYQQKPGKAPKLLIYTASSLQSGVPSRFSGSGSGTDFTLTISSLQPEDFATYYCQQSYSTPYTFGQGTKVEIKR",60 nM,0.012 s⁻¹,200000 M⁻¹ s⁻¹
"Human ST2 IgG1 Antibody 64 (antibody, V domains shown, IgG1; also called ST2 Antibody 64) VH: QVQLVQSGAEVKKPGSSVKVSCKASGYFFTSYGISWVRQAPGQGLEWMGGVIPISGTANYAQSFQGRVTITADESTSTAYMELSSLRSEDTAVYYCARDENGAFDIWGQGTTVTVSS VL: not shown",366 nM,0.12 s⁻¹,330000 M⁻¹ s⁻¹
"Human ST2 IgG1 Antibody 67 (antibody, V domains shown, IgG1; also called ST2 Antibody 67) VH: QVQLVQSGAEVKKPGASVKVSCKASGGTFSSYAISWVRQAPGQGLEWMGRINPNSGGTVYAQKFQGRVTMTRDTSTSTVYMELSSLRSEDTAVYYCARDTSIAARLNPDYYYYYGMDVWGQGTTVTVSS VL: DIQMTQSPSSLSASVGDRVTITCRASQSISSWLAWYQQKPGKAPKLLIYAASNLQSGVPSRFSGSGSGTDFTLTISSLQPEDFATYYCQQSYSTPVTFGQSTRLEIKR",738 nM,0.1 s⁻¹,140000 M⁻¹ s⁻¹
"Human ST2 IgG1 Antibody 71 (antibody, V domains shown, IgG1; also called ST2 Antibody 71) VH: QVQLVQSGAEVKKPGASVKVSCKASGGTFSNYGVSWVRQAPGQGLEWMGGINPSRGTTTYAQKFQGRVTMTRDTSTSTVYMELSSLRSEDTAVYYCAKGDIVVVPAAMFSLGPGYYYYMDVWGKGTTVTVSS VL: DIQMTQSPSSLSASVGDRVTITCRASQSISSYLNWYQQKPGKAPKLLIYAASSLQSGVPSRFSGSGSGTDFTLTISSLQPEDFATYYCQQANSFPITFGQGTKLEIKR",912 nM,0.12 s⁻¹,140000 M⁻¹ s⁻¹
"Human ST2 IgG1 Antibody 75 (antibody, V domains shown, IgG1; also called ST2 Antibody 75) VH: EVQLLESGGGLVQHGGSLRLSCAASGFTFSSYWMSWVRQAPGKGLEWVSSISSSSSYIYYADSVKGRFTISRDNSKNTLYLQMNSLRAEDTAVYYCARDIAGYFDLWGRGTLVTVSS VL: DIQMTQSPSSLSASVGDRVTITCQASQSISSYLNWYQQKPGKAPKLLIYAASSLQSGVPSRFSGSGSGTDFTLTISSLQPEDFATYYCQQGYLTPYTFGQGTKLEIKR",360 nM,0.041 s⁻¹,120000 M⁻¹ s⁻¹

# The remaining binders from weak to strong by Kd, led by results:
Kd,koff,kon,Binder
603 nM,0.085 s⁻¹,140000 M⁻¹ s⁻¹,"Human ST2 IgG1 Antibody 73 (antibody, V domains shown, IgG1; also called ST2 Antibody 73) VH: EVQLLESGGGLVQPGGSLRLSCAASGFAFSSHWMHWVRQAPGKGLEWVAVISYDGSNKYYADSVKGRFTISRDNSKNTLYLQMNSLRAEDTAVYYCARDRGMIDYWGQGTLVTVSS VL: DIQMTQSPSSLSASVGDRVTITCRASQGIGSWLAWYQQKPGKAPKLLIHAATKLQTGVPSRFSGSGSGTDFTLTISSLQPEDFATYYCQQSYSTPFTFGPGTKVDIKR"
563 nM,0.14 s⁻¹,260000 M⁻¹ s⁻¹,"Human ST2 IgG1 Antibody 61 (antibody, V domains shown, IgG1; also called ST2 Antibody 61) VH: QVQLVQSGAEVKKPGSSVKVSCKASGGTFSNYAISWVRQAPGQGLEWMGGIIPVFGTATYAQKFQGRVTITADESTSTAYMELSSLRSEDTAVYYCARVTAMGVGWYFDLWGRGTLVTVSS VL: DIVMTQSPLSLPVTPGEPASISCRSSQSLLHSNGYNYLDWYLQKPGQSPQLLIYAASSLQSGVPDRFSGSGSGTDFTLKISRVEAEDVGVYYCMQSLQTPPTFGQGTKLEIKR"
335 nM,0.082 s⁻¹,240000 M⁻¹ s⁻¹,"Human ST2 IgG1 Antibody 72 (antibody, V domains shown, IgG1; also called ST2 Antibody 72) VH: EVQLLESGGGLVQPGGSLRLSCAASGFTFSSYGMSWVRQAPGKGLEWLAVIWSDGGHKYYADSVKGRFTISRDNSKNTLYLQMNSLRAEDTAVYYCAREVRGWFDPWGQGTLVTVSS VL: DIQMTQSPSSLSASVGDRVTITCRASENIGTWLAWYQQKPGKAPKLLIYKASSLDSGVPSRFSGSGSGTDFTLTISSLQPEDFATYYCQQSYSTPYTFGQGTKLEIKR"
268 nM,0.099 s⁻¹,370000 M⁻¹ s⁻¹,"Human ST2 IgG1 Antibody 70 (antibody, V domains shown, IgG1; also called ST2 Antibody 70) VH: QVQLVQSGAEVKKPGSSVKVSCKASGYAFTDYFIHWVRQAPGQGLEWMGGIIPIFGTANYAQKFQGRVTITADKSTSTAYMELSSLRSEDTAVYYCARVAYGAFDIWGQGTMVTVSS VL: EIVMTQSPATLSVSPGERATLSCRASQSVSSSYLAWYQQKPGQAPRLLIYGASTRATGIPARFSGSGSGTEFTLTISSLQSEDFAVYYCQQYNNWPLTFGGGTKVEIKR"
133 nM,0.11 s⁻¹,820000 M⁻¹ s⁻¹,"Human ST2 IgG1 Antibody 76 (antibody, V domains shown, IgG1; also called ST2 Antibody 76) VH: QVQLVQSGAEVKKPGSSVKVSCKASGYTFTDYYMHWVRQAPGQGLEWMGVIIPVLGAAKYAQKFQGRVTITADESTSTAYMELSSLRSEDTAVYYCAKGWGAFDIWGQGTMVTVSS VL: EIVMTQSPATLSVSPGERATLSCRASQSVSSYLAWYQQKPGQAPRLLIYGASTRASGIPARFSGSGSGTEFTLTISSLQSEDFAVYYCQQYYSYPWTFGQGTKVEIKR"
71 nM,0.029 s⁻¹,410000 M⁻¹ s⁻¹,"Human ST2 IgG1 Antibody 69 (antibody, V domains shown, IgG1; also called ST2 Antibody 69) VH: QVQLVQSGAEVKKPGASVKVSCKASGYTFSDYYVHWVRQAPGQGLEWMGWISAYNGNTNYAQKLQGRVTMTRDTSTSTVYMELSSLRSEDTAVYYCARGSLDIWFREPGVYMDVWGKGTTVTVSS VL: DIVMTQSPLSLPVTPGEPASISCRSSQSLLHSNGYNYLDWYLQKPGQSPQLLIYAASSLQSGVPDRFSGSGSGTDFTLKISRVEAEDVGVYYCMQALQTPITFGQGTKVEIKR"
71 nM,0.068 s⁻¹,960000 M⁻¹ s⁻¹,"Human ST2 IgG1 Antibody 62 (antibody, V domains shown, IgG1; also called ST2 Antibody 62) VH: QVQLVQSGAEVKKPGSSVKVSCKASGYIFTNYWIQWVRQAPGQGLEWMGGIIPIFETANYAQKFQGRVTITADDSTSTAYMELSSLRSEDTAVYYCARLGDRGDFDYWGQGTLVTVSS VL: DIVMTQSPDSLAVSLGERATINCKSSQSISHSPNTRDYLAWYQQKPGQPPKLLIYWASTRESGVPDRFSGSGSGTDFTLTISSLQAEDVAVYYCQQYYRFPLAFGQSTKVEIKR"
